B1: Cy5-labeled 30-mer, one CpG site (dsDNA)
DNA 1: GAAGCTGGGACTTCCGGGAGGAGAGTGCAA
DNA 2: TTGCACTCTCCTCCCGGAAGTCCCAGCTTC

Experiments:
[1] = target: Dnmt3b-C (C-terminal catalytic domain of mouse Dnmt3b) (mouse)
Dnmt3b-C = Dnmt3b-C (mouse, UniProt O88509 558-859); experiment: nitrocellulose filter binding

Molecule | DNA methylation activity of Dnmt3b-C in the presence of Dnmt3L (fold activation) [1] [fold] | binding result (Dnmt3b-C)
Dnmt3L (from UniProt Q9CWR8 1-421) (natural protein) | 6 | 
B1 |  | binds

— publication PMC5992102
